Legend:
Conditions in all cases: both partners purified
[1] = molecular target: T1, His6-Ran (yeast (S. cerevisiae), UniProt P32835 1-219); assay: pull-down; GST fusion immobilised on GSH-Sepharose, incubated with 2 µM His6-Ran loaded with GTP, 1 hr at 4°C
T1 construct: Gsp1 (yeast Ran), wild type; loaded with GTP or with GDP before the assay; the two loadings are two assays; also called His6-Gsp1 (Ran) WT; RanGTP; not shown: His6, N-terminal, kept

[2] = molecular target: T2, His6-Ran^QLGTP (yeast (S. cerevisiae), UniProt P32835 1-219, Gsp1Q71L); assay: pull-down; GST fusion immobilised on GSH-Sepharose in PBSKMT, incubated with one purified protein (2 µM His6-Ran variant, or 0.5 µM Slx9 or Slx9-1) for 1 hr at 4°C, competing E. coli lysates present; Coomassie or Western
T2 construct: Gsp1 (yeast Ran), GTP-stabilized mutant Q71L, equivalent to human RanQ69L; also called Gsp1Q71L; RanGTP; not shown: His6, N-terminal, kept

[3] = molecular target: Crm1-His6 (yeast (S. cerevisiae), UniProt P30822 1-1084); assay: pull-down; trimeric export complex formation: GST fusion immobilised on GSH-Sepharose, incubated with 2 µM His6-Ran^QLGTP and 50 nM Crm1-His6 together; competing E. coli lysates present; Coomassie or Western
[4] = molecular target: T2, His6-Ran^QLGTP; assay: as above

Binder	binding result [1]	binding result [2]	binding result [3]	binding result [4]
GST-Slx9 (natural protein, yeast (S. cerevisiae), UniProt P53251 1-210, looked up) MVAKKRNTLRSKVSARNSQNFGPDVANNGILDESYDIESDPRAFLHQPKETKKEKLLNRQNTFLSNLKGKSTLNDGIAANFDGISKSSIRRRKRKLREELKPRMQDLLTSLEQEKDLRGIIENSSKDMNNDDDIDMDSKIRFVDTKEMNLKKIEPGSVRIKKNQPNIRNQKGAKALAANETARFNQVLTNQDFQKNPFGALREVIKLQKQ	binds	binds	–	–
GST-Ssb1C (domain or fragment, yeast (S. cerevisiae), UniProt P11484 524-613, looked up) NQAEEFKAADEAFAKKHEARQRLESYVASIEQTVTDPVLSSKLKRGSKSKIEAALSDALAALQIEDPSADELRKAEVGLKRVVTKAMSSR	–	–	binds	binds

— article PMC4402694, “A non-canonical mechanism for Crm1-export cargo complex assembly” (eLife, 2015)
